Test [1] has as its target T1, CD6 on Jurkat cells (human, UniProt P30203 18-668).
T1 construct: whole, on cells; the target is inferred from the antibodies' specificity
T1 sequence (looked up): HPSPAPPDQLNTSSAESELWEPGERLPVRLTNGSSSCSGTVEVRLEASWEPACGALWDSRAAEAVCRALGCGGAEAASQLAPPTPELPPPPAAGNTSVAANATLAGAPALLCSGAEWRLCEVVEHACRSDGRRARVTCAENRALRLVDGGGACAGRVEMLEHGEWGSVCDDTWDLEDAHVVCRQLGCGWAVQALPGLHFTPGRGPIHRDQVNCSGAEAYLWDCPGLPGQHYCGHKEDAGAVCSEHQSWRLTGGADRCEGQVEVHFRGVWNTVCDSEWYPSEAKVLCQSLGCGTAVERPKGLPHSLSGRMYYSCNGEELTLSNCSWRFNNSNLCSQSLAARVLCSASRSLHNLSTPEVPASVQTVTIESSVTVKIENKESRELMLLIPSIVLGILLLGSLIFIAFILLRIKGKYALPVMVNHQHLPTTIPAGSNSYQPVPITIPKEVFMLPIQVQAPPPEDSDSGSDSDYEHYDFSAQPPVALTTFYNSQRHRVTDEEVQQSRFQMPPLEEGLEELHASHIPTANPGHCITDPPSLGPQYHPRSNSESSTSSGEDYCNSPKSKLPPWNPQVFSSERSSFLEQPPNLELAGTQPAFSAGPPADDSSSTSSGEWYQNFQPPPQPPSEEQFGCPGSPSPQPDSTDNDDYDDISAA
The experiment in a line: flow cytometry on Jurkat cells, antibody at 0 pM (background). The protocol:
(§1) Flow cytometric analysis was performed using the purified antibodies. Jurkat cells were grown to 70-80% confluence and harvested by centrifuge. About 4×10⁵ cells per well were washed with PBS twice. 200 μl of the culture supernatant was added to the cells and incubated at room temperature for 1 hour. After washing with PBS, antibody was added to the cells for the detection of bound humanized IgG. After 30 minutes incubation, the cells were washed twice with PBS and resuspended in PBS. Cells were analyzed for IgG binding by using FACS Calibur (BD Bioscience, San Jose, Calif.) and Flowjo software. The IC₅₀ was analyzed by GraphPad Prism.
(§2) The FACS binding assay was also performed for validation of the Jurkat cell/humanized antibody interaction. Three humanized antibodies show almost equal Jurkat cell binding activity as parent antibody.
(In general: In flow cytometry, cells or beads pass a laser one at a time.)

Test [2] addresses T1, CD6 on Jurkat cells. In words: flow cytometry on Jurkat cells, antibody at 16 pM. The protocol:
as §1, §2

Test [3] concerns the target T1, CD6 on Jurkat cells. The experiment in a line: flow cytometry on Jurkat cells, antibody at 400 pM. The protocol: as §1, §2
For test [4], the target named is T1, CD6 on Jurkat cells. The experiment in a line: flow cytometry on Jurkat cells, antibody at 10000 pM. The procedure: as §1, §2
In test [5] the target is T2, rhCD6-Fc (human, UniProt P30203 25-398, limits assumed).
T2 construct: also called rhCD6-Fc chimera; antigen rhCD6-Fc; not shown: Fc part
T2 sequence (looked up): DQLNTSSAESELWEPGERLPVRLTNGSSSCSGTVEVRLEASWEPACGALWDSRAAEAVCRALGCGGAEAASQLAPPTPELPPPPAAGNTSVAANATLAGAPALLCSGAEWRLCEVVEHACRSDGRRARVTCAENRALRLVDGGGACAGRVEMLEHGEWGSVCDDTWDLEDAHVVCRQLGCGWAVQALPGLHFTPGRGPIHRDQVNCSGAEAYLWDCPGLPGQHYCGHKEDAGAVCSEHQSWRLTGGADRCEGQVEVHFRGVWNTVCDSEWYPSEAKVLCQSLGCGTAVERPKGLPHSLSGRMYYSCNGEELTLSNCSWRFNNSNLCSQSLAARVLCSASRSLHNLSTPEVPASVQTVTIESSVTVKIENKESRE
The experiment in a line: SPR (BIAcore T200, 25 C), rhCD6-Fc immobilised on CM5, IgG injected 0.11-27 nM, 1:1 fit; column head misprinted 'Kd (1/Ms)'. The procedure:
(§3) IgG antibodies were injected through flow cells at a flow rate of 30 μl/min with the concentration ranging from 0.11-27 nM (three-fold serial dilution). Association time was 700 s followed by 3600 s dissociation. At the end of each cycle, sensor surface was regenerated with 10 mM Glycine-HCl, pH 2.0 (100 μl/min, 12 s for 3 times). Responses of reference flow cell and buffer-only injection were double-subtracted from rhCD6-Fcflow cell during each antigen injection cycle. The data of dissociation (kd) and association (ka) rate constants were obtained by fitting binding data to 1:1 binding model using Biacore T200 evaluation software. The apparent equilibrium dissociation constants (KD) were calculated from the ratio of kd over ka.
(§4) Affinity analysis of antigen-antibody interaction. Binding data of each antibody was processed and fitted to 1:1 binding model using Biacore T200 evaluation software. All experiment data could be perfectly fitted to the model (FIG. 14).
On the technique in general: SPR reads the build-up and loss of mass on a sensor chip optically.

For test [6], the target named is T1, CD6 on Jurkat cells. The experiment in a line: flow cytometry on Jurkat cells, antibody at 2000 pM. The protocol:
as §1, §2

For test [7], the target named is T1, CD6 on Jurkat cells. The experiment in a line: flow cytometry on Jurkat cells, antibody at 80 pM. The protocol:
as §1, §2

Test [8] addresses T1, CD6 on Jurkat cells. The experiment in a line: flow cytometry titration of direct binding on Jurkat cells (the filing calls the midpoint IC50), GraphPad Prism. The procedure: as §1, §2
In test [9] the target is T1, CD6 on Jurkat cells. In words: flow cytometry on Jurkat cells, antibody at 3.2 pM. The procedure:
as §1, §2

The target in test [10] is T2, rhCD6-Fc. The experiment in a line: SPR (BIAcore T200, 25 C), rhCD6-Fc immobilised on CM5, IgG injected, apparent KD = kd/ka. The procedure:
as §3, §4

Test [11] addresses T2, rhCD6-Fc. The experiment in a line: SPR (BIAcore T200), Fab-SASA from culture medium captured on immobilised BSA, rhCD6-Fc injected, 1:1 fit of off-rate. The protocol:
BSA was immobilized onto the sensor chip using amine coupling method. The selected Fab-SASA clones secreted to the culture medium were injected and captured by BSA via SASA (capture phase). After equilibration, antigen rhCD6-Fc was injected for 240 seconds (association phase) followed by the injection of running buffer for 720 seconds (dissociation phase). The surface was regenerated before the injection of another three Fab-SASA clones. The process was repeated until all antibodies were analyzed. Responses of reference flow cell were subtracted from those of Fab-SASA flow cells during each cycle. The binding curves of Fab-SASA clones were aligned at the start of association and normalized at 20 seconds after the stop of antigen injection using the BIAcore T200 evaluation software in order to display a more visualized comparison of antibodies. The off-rates of Fab-SASA clones were obtained from fitting the experimental data locally to 1:1 binding model. The antibodies were ranked by their dissociation rate constants Single cycle kinetics measurement was performed to verify the affinity ranking result. The selected Fab-SASA clones secreted to the culture medium were injected and captured by BSA via SASA (capture phase). After equilibration, a series of concentrations of antigen rhCD6-Fc (1, 3, 9, 27 and 81 nM) were injected for 500 seconds (association phase) followed by the injection of running buffer for 3000 seconds (dissociation phase). The surface was regenerated before another injection of Fab-SASA clones. Responses of reference flow cell and buffer-only injection were double-subtracted from those of Fab-SASA flow cells during each antigen injection cycle. The binding data were fitted to 1:1 binding model using the BIAcore T200 evaluation software.
Five back-mutation clones were constructed based on sequence of Fab2 and homology modeling. Each of DNA sequence encoding the five Fab fragments was inserted into pFASEBA vector for screening of the lead antibodies. The five clones along with Fab2 were screened against rhCD6-Fc for binding test and subsequent off-rate analysis by the BIAcore T200. Three clones were selected for IgG production and characterization due to the low dissociation rate using the BIAcore T200 evaluation software (Table 3).

“And” between values parts separate entries of the source, which are not always exact repeats. Identical values can stand only once.

Usually koff stands for the first-order rate constant of dissociation. Lower therefore signals slow dissociation. One may read the kon as the second-order rate constant of association. For orientation: EC50 means the concentration that produces a half-maximal response.

B1: Humanized IgG6 (from Fab6) (antibody, V domains shown)
VH: QVQLQESGPGLVKPSETLSLTCTVSGFSLSRYSVHWIRQPPGKGLEWIGLIWGGGFTDYNSALKSRVTISKDNSKNQVSLKLSSVTAADTAVYYCAREGVAYWGQGTLVTVSS
VL: DVVMTQSPLSLPVTLGQPASISCKSSQSLLNSDGRTYLNWFQQRPGQSPRRLIYLVSKLDSGVPDRFSGSGSGTDFTLKISRVEAEDVGVYYCWQGTHFPFTFGPGTKVDIKR
notes: Human IgG1 / kappa
Take B1: the MFI turned out to be 5.45 with CD6 on Jurkat cells [1]; 7.9 in the test with CD6 on Jurkat cells [2]; 35.3 with CD6 on Jurkat cells [3]; 45.2 with CD6 on Jurkat cells [4]; 44.1 in the test with CD6 on Jurkat cells [6]; 14.8 in the test with CD6 on Jurkat cells [7]. Also, the MFI with CD6 on Jurkat cells [9] amounted to 6.68. In the test with rhCD6-Fc [5], the koff worked out at 2.1e-05 s⁻¹. Besides, in the test with rhCD6-Fc [5], the kon worked out at 650000 M⁻¹ s⁻¹. For the same molecule, the response with CD6 on Jurkat cells [8] was half-maximal at 0.197 nM (EC50). For the same molecule, the Kd in the test with rhCD6-Fc [10] was found to be 0.032 nM.

B2: Fab2 (Fab, V domains shown)
VH: QVQLQESGPGLVKPSETLSLTCTVSGFSLSRYSVHWVRQPPGKGLEWLGLIWGGGFTDYNSALKSRLTISKDNSKNQVSLKLSSVTAADTAVYYCAREGVAYWGQGTLVTVSS
VL: DVVMTQSPLSLPVTLGQPASISCKSSQSLLNSDGRTYLNWFQQRPGQSPRRLIYLVSKLDSGVPDRFSGSGSGTDFTLKISRVEAEDVGVYYCWQGTHFPFTFGPGTKVDIK
notes: Tested as Fab-SASA secreted into culture medium (pFASEBA vector); also called back-mutation 2; Fab2 clone from CDR grafting
On to B2, for which the koff with rhCD6-Fc [11] came to 2.1e-05 s⁻¹.

B3: Fab4 (Fab, V domains shown)
VH: QVQLQESGPGLVKPSETLSLTCTVSGFSISRYSVHWIRQPPGKGLEWIGLIWGGGFTDYNSALKSRVTISKDNSKNQVSLKLSSVTAADTAVYYCAREGVAYWGQGTLVTVSS
VL: DVVMTQSPLSLPVTLGQPASISCKSSQSLLNSDGRTYLNWFQQRPGQSPRRLIYLVSKLDSGVPDRFSGSGSGTDFTLKISRVEAEDVGVYYCWQGTHFPFTFGPGTKVDIK
notes: Tested as Fab-SASA secreted into culture medium; also called back-mutation 4
Take B3: the koff with rhCD6-Fc [11] worked out at 1.9e-05 s⁻¹.

B4: Fab7 (Fab, V domains shown)
VH: QVQLQESGPGLVKPSETLSLTCTVSGGSISRYSVHWVRQPPGKGLEWLGLIWGGGFTDYNSALKSRLTISVDTSKNQFSLKLSSVTAADTAVYYCAREGVAYWGQGTLVTVSS
VL: DVVMTQSPLSLPVTLGQPASISCKSSQSLLNSDGRTYLNWFQQRPGQSPRRLIYLVSKLDSGVPDRFSGSGSGTDFTLKISRVEAEDVGVYYCWQGTHFPFTFGPGTKVDIK
notes: Tested as Fab-SASA secreted into culture medium; also called back-mutation 7
In turn, B4 had a koff in the test with rhCD6-Fc [11] of 0.00089 s⁻¹.

B5: Humanized IgG2 (from Fab2) (antibody, V domains shown)
VH: QVQLQESGPGLVKPSETLSLTCTVSGFSLSRYSVHWVRQPPGKGLEWLGLIWGGGFTDYNSALKSRLTISKDNSKNQVSLKLSSVTAADTAVYYCAREGVAYWGQGTLVTVSS
VL: DVVMTQSPLSLPVTLGQPASISCKSSQSLLNSDGRTYLNWFQQRPGQSPRRLIYLVSKLDSGVPDRFSGSGSGTDFTLKISRVEAEDVGVYYCWQGTHFPFTFGPGTKVDIKR
notes: VH2-hIgG1CH and VL-hIgKCL (human IgG1 / kappa)
As to B5, the MFI came to 5.45 with CD6 on Jurkat cells [1]; 6.8 with CD6 on Jurkat cells [2]; 31 with CD6 on Jurkat cells [3]; 42.7 with CD6 on Jurkat cells [4]; 45 with CD6 on Jurkat cells [6]; 10.9 in the test with CD6 on Jurkat cells [7]. In the test with CD6 on Jurkat cells [9], this molecule registered an MFI of 6.18. In the test with rhCD6-Fc [5], this molecule yielded a koff of 1.3e-05 s⁻¹. In the test with rhCD6-Fc [5], this molecule came in with a kon of 320000 M⁻¹ s⁻¹. The molecule further yielded an EC50 with CD6 on Jurkat cells [8] of 0.275 nM. In addition, the Kd with rhCD6-Fc [10] came to 0.042 nM.

B6: Fab6 (Fab, V domains shown)
VH: QVQLQESGPGLVKPSETLSLTCTVSGFSLSRYSVHWIRQPPGKGLEWIGLIWGGGFTDYNSALKSRVTISKDNSKNQVSLKLSSVTAADTAVYYCAREGVAYWGQGTLVTVSS
VL: DVVMTQSPLSLPVTLGQPASISCKSSQSLLNSDGRTYLNWFQQRPGQSPRRLIYLVSKLDSGVPDRFSGSGSGTDFTLKISRVEAEDVGVYYCWQGTHFPFTFGPGTKVDIK
notes: Tested as Fab-SASA secreted into culture medium; also called back-mutation 6
With B6, the koff in the test with rhCD6-Fc [11] turned out to be 3.1e-05 s⁻¹.

B7: Fab5 (Fab, V domains shown)
VH: QVQLQESGPGLVKPSETLSLTCTVSGGSLSRYSVHWVRQPPGKGLEWLGLIWGGGFTDYNSALKSRLTISVDTSKNQFSLKLSSVTAADTAVYYCAREGVAYWGQGTLVTVSS
VL: DVVMTQSPLSLPVTLGQPASISCKSSQSLLNSDGRTYLNWFQQRPGQSPRRLIYLVSKLDSGVPDRFSGSGSGTDFTLKISRVEAEDVGVYYCWQGTHFPFTFGPGTKVDIK
notes: Tested as Fab-SASA secreted into culture medium; also called Fab5 R; back-mutation 5
Consider B7, for which the koff with rhCD6-Fc [11] is 0.00053 s⁻¹ and 0.00056 s⁻¹.
